Residue numbers refer to the chain shown, from its start.
T1: human IL-17 (human, UniProt Q16552 20-155, limits assumed)
T1 sequence: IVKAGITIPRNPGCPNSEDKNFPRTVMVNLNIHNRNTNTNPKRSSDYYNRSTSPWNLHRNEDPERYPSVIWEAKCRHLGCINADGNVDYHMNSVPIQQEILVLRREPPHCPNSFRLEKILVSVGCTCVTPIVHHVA

T2: human IL-17F (human, UniProt Q96PD4 31-163)
T2 sequence (looked up): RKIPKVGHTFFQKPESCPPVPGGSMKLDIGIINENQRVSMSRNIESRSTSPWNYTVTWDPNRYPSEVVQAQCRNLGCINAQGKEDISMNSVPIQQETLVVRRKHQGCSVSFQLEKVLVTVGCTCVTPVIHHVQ

T3: human IL-22 (human, UniProt Q9GZX6 34-179)
T3 construct: Negative control antigen
T3 sequence (looked up): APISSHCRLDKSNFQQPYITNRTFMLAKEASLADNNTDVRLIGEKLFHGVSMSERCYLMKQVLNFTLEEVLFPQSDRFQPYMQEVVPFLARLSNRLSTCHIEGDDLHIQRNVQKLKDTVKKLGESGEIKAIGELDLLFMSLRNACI

T4: mouse IL-17 (murine, UniProt Q62386 26-158, limits assumed)
T4 construct: also called murine IL-17
T4 sequence: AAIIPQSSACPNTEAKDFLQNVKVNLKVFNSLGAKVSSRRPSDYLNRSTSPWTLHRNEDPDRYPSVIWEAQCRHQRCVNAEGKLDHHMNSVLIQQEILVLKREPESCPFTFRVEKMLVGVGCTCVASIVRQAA

T5: human IL-17B (human, UniProt Q9UHF5 21-180)
T5 sequence (looked up): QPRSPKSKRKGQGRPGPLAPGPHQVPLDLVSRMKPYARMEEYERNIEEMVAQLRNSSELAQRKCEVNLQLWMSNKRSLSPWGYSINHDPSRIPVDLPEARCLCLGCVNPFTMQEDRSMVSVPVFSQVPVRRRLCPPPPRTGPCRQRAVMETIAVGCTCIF

T6: human IL-17C (human, UniProt Q9P0M4 19-197)
T6 sequence (looked up): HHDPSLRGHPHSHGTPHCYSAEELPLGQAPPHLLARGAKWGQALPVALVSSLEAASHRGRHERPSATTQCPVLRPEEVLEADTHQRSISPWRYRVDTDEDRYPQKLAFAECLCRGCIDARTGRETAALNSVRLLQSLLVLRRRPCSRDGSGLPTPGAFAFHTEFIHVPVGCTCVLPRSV

T7: human IL-17D (human, UniProt Q8TAD2 18-202, limits assumed)
T7 sequence (looked up): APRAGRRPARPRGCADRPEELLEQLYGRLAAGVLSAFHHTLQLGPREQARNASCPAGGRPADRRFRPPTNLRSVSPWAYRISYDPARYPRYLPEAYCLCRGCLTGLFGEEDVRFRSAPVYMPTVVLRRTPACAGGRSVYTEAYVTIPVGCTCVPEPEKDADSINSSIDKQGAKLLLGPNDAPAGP

T8: human IL-17E (human, UniProt Q9H293 33-177)
T8 sequence (looked up): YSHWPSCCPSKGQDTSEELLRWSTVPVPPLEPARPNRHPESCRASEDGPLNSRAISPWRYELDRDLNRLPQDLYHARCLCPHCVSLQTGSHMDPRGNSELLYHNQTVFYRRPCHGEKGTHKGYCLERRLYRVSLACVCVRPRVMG

T9: cynomolgus monkey IL-17 (cynomolgus monkey, UniProt Q16552 24-155 (human entry), limits assumed)
T9 construct: Not commercially available; cloned and expressed; also called CYNO IL-17
T9 chain: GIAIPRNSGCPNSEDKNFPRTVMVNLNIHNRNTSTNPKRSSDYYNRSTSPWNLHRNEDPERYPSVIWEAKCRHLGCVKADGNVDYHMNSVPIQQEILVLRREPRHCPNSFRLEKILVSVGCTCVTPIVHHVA

B1: Fab 121 (Fab, V domains shown)
VH: QVQLVQSGAEVKKPGSSVKVSCKASGYSFTDYHISWVRQAPGQGLEWMGVINPEYGTTDYNQRFKGRVTITADESTSTAYMELSSLRSEDTAVYYCARYDYFTGTGAYWGQGTLVTVSS
VL: DIVMTQTPLSLSVTPGQPASISCRSSQSLKHSRGNTFLHWYLQKPGQSPQLLIYKVSNRFIGVPDRFSGSGSGTDFTLKISRVEAEDVGVYYCSQSTHYPFTFGQGTKLEIK
notes: constant domains are not specified
B2: Fab 126 (Fab, V domains shown)
VH: B1 VH with S35H, E54M, A107V
VL: B1 VL with Q27R, K30V, F37Y, Y99L
notes: as for B1
B3: mAb 103 (full-length, IgG4 Fc region) (antibody, V domains shown)
VH: B1 VH with S35H
VL: B1 VL with K30R, F37Y, R59I, I61S
notes: also called full-length mAb 103
B4: mAb 104 (full-length, IgG4 Fc region) (antibody, V domains shown)
VH: B1 VH with S35H
VL: B1 VL with Q27K, K30V, N58T, I61S
notes: also called full-length mAb 104
B5: mAb 118 (full-length, IgG4 Fc region) (antibody, V domains shown)
VH: B1 VH with E54M, F102Y, A107V
VL: B1 VL with K30V
B6: mAb 131 (full-length, IgG4 Fc region) (antibody, V domains shown)
VH: B1 VH with S35H, A107V
VL: B1 VL with Q27K, K30V, F37Y
B7: mAb 121 (full-length, IgG4 Fc region) (antibody, V domains shown)
VH: B1 VH
VL: B1 VL
notes: Full-length mAb with an IgG4 Fc region
B8: mAb 126 (full-length, IgG4 Fc region) (antibody, V domains shown)
VH: B1 VH with S35H, E54M, A107V
VL: B1 VL with Q27R, K30V, F37Y, Y99L
notes: as for B7

Assays:
human IL-17 [1] = biological target: T1, human IL-17; assay: cell-based or functional assay
human IL-17F = biological target: T2, human IL-17F; assay: ELISA, antigen coated on plate
Protocol: (§1) In an exemplary assay, ELISA plate wells (Nunc Immuno Maxisorp) are coated with 100 μl (0.5 ng/ml in 1× coating buffer (BioFx)) of IL-17 family member proteins (R&D Systems) sealed and incubated overnight at 4° C. The solution in the well is removed by flicking and blocking buffer (200 μl 1.5% BSA in PBS) is added. The plates are incubated on a rotating shaker for 30 minutes at room temperature. Then 100 μl of an antibody to be tested is added per well at varying concentrations (e.g., 2, 0.4, 0.08, 0.016, 0.0032 and 0 μg/ml). The plates are again incubated overnight (4° C.) followed by warming on a rotating shaker (60 min room temp). Each plate-well is then washed five times with buffer (1× Ish buffer, BioFX). After washing, an appropriate commercially available HRP-conjugated secondary antibody (1:2000 in PBS with 1.5% BSA) is added (100 μl/well). Plates are re-incubated on a rotating shaker (60 min. room temp.) followed by buffer washing (5×) as described above. The colorimetric signal is developed by adding TMB (100 μl/well) until saturation (approx 3-5 min.) then further development is ended by adding stop solution (100 μl/well, BioFX). The color signal is measured at 450 nm absorbance using any appropriate ELISA plate reader. The degree of binding is proportional to color signal production.

human IL-22 = biological target: T3, human IL-22; assay: ELISA, antigen coated on plate
Protocol: as §1

mouse IL-17 = biological target: T4, mouse IL-17; assay: ELISA, antigen coated on plate
Protocol: as §1

human IL-17B = biological target: T5, human IL-17B; assay: ELISA, antigen coated on plate
Protocol: as §1

human IL-17C = biological target: T6, human IL-17C; assay: ELISA, antigen coated on plate
Protocol: as §1

human IL-17D = biological target: T7, human IL-17D; assay: ELISA, antigen coated on plate
Protocol: as §1

human IL-17E = biological target: T8, human IL-17E; assay: ELISA, antigen coated on plate
Protocol: as §1

[2] = biological target: New Zealand white rabbit IL-17 (rabbit); assay: SPR (BIACORE 2000), mAb captured on Protein A; biphasic, heterogeneous ligand model, first of two affinities
human IL-17 [3] = biological target: T1, human IL-17; assay: SPR (BIACORE 2000), mAb captured on Protein A, IL-17 injected, 25 C, 1:1 with mass transfer model;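 further: CM4 chip with immobilized Protein A, HBS-EP running buffer pH 7.4, IL-17 titrated downward from 10 nM in twofold steps, 20 min dissociation phase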
Protocol: (§2) A BIACORE® 2000 instrument is used to measure antigen-antibody binding kinetics and affinity. The instrument utilizes the optical properties of surface plasmon resonance to detect alteration in protein concentration of interacting molecules within a dextran biosensor matrix. Except as noted, all reagents and materials are purchased from BIACORE® AB. All measurements are performed at 25° C. Samples are resuspended in HBS-EP buffer to a final concentration of 2 μg/ml (150 mM sodium chloride, 3 mM EDTA, 0.005% (w/v) surfactant P-20, and 10 mM HEPES, pH 7.4). Protein A is immobilized on flow cells 1 to 4 of a CM4 sensor chip at a level of 500 response units using an amine coupling kit.
(§3) Binding is evaluated using multiple analytical cycles. […] Association and dissociation rates for each cycle are evaluated using a “1:1 with mass transfer” binding model in the BIAevaluation software.

cynomolgus monkey IL-17 = biological target: T9, cynomolgus monkey IL-17; assay: as above
Protocol: as §2, §3

[4] = biological target: New Zealand white rabbit IL-17 (rabbit); assay: SPR (BIACORE 2000), mAb captured on Protein A; biphasic, heterogeneous ligand model, second of two affinities

Chain of New Zealand white rabbit IL-17 (rabbit) (chain, as listed by the source limits assumed, form in doubt): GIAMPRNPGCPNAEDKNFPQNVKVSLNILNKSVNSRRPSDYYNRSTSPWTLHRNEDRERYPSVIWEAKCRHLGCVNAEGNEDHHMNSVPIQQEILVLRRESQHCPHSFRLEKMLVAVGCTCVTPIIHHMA

Molecule | Kd [2] [pM] | koff [2] [s⁻¹] | kon [2] [M⁻¹ s⁻¹] | Kd (human IL-17 [3]) [pM] | koff (human IL-17 [3]) [s⁻¹] | kon (human IL-17 [3]) [M⁻¹ s⁻¹] | Kd (cynomolgus monkey IL-17) [pM] | koff (cynomolgus monkey IL-17) [s⁻¹] | kon (cynomolgus monkey IL-17) [M⁻¹ s⁻¹] | Kd [4] [pM] | koff [4] [s⁻¹] | kon [4] [M⁻¹ s⁻¹] | also measured
IgG4 negative control (antibody) |  |  |  |  |  |  |  |  |  |  |  |  | AVG GROα, pg/ml at 2.56 pM antibody (60 ng/ml IL-17, HT-29 cells) (human IL-17 [1]): 1240 pg/ml; AVG GROα, pg/ml at 12.8 pM antibody (60 ng/ml IL-17, HT-29 cells) (human IL-17 [1]): 1350 pg/ml; AVG GROα, pg/ml at 64.0 pM antibody (60 ng/ml IL-17, HT-29 cells) (human IL-17 [1]): 1380 pg/ml; AVG GROα, pg/ml at 320.0 pM antibody (60 ng/ml IL-17, HT-29 cells) (human IL-17 [1]): 1390 pg/ml; AVG GROα, pg/ml at 1,600.0 pM antibody (60 ng/ml IL-17, HT-29 cells) (human IL-17 [1]): 1370 pg/ml; AVG GROα, pg/ml at 8,000.0 pM antibody (60 ng/ml IL-17, HT-29 cells) (human IL-17 [1]): 1420 pg/ml; AVG GROα, pg/ml at 40,000.0 pM antibody (60 ng/ml IL-17, HT-29 cells) (human IL-17 [1]): 1300 pg/ml
B1 |  |  |  |  |  |  |  |  |  |  |  |  | binding result (human IL-17F): no binding; binding result (human IL-22): no binding; binding result (mouse IL-17): no binding; binding result (human IL-17B): no binding; binding result (human IL-17C): no binding; binding result (human IL-17D): no binding; binding result (human IL-17E): no binding
B2 |  |  |  |  |  |  |  |  |  |  |  |  | binding result (human IL-22): no binding; binding result (mouse IL-17): no binding; binding result (human IL-17B): no binding; binding result (human IL-17C): no binding; binding result (human IL-17D): no binding; binding result (human IL-17E): no binding
B3 | 2000 | 0.00036 | 180000 | 1.4 | 1.5e-05 | 1.1e+07 | 1.3 | 1.1e-05 | 8.8e+06 | 18100 | 0.192 | 1.06e+07 | 
B4 | 1900 | 0.00018 | 100000 | 1.7 | 1.1e-05 | 7.7e+06 | 0.5 | 5e-06 | 9.4e+06 | 20000 | 0.07 | 4e+06 | 
B5 |  |  |  | 3.9 | 2e-05 | 5e+06 |  |  |  |  |  |  | 
B6 |  |  |  | 2.9 | 1.6e-05 | 5.4e+06 |  |  |  |  |  |  | 
B7 | 510 | 0.0004 | 800000 | 1.6 | 1.5e-05 | 1e+07 | 1.1 | 7e-06 | 7.8e+06 | 1500 | 0.021 | 1.7e+07 | decrease of the mean mouse KC level after human IL-17 injection in mice, 20 µg/mouse, compared to a control antibody (human IL-17 [1]): ~3 fold
B8 |  |  |  |  |  |  | 0.8 |  |  |  |  |  | IC50, IL-17-induced GROα secretion from HT-29 cells (human IL-17 [1]): ~560 pM
